# Changes are numbered by the printed parent chain.
# T1: mouse FcγRII extracellular domain with C-terminal His tag (mouse, UniProt P08101 30-210)
# T1 construct: Made on the basis of NCBI NP-034317.1; also called mFcγRII; mFcgRII
# T1 sequence: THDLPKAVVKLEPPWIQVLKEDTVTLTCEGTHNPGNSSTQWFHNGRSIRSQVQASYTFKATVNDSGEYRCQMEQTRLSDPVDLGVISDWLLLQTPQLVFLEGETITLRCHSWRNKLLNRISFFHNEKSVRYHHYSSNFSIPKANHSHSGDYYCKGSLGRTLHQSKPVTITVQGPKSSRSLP
# T2: mouse FcγRIII extracellular domain with C-terminal His tag (mouse, UniProt P08508 31-215)
# T2 construct: Made on the basis of NCBI NP-034318.2; also called mFcγRIII; mFcgRIII
# T2 chain: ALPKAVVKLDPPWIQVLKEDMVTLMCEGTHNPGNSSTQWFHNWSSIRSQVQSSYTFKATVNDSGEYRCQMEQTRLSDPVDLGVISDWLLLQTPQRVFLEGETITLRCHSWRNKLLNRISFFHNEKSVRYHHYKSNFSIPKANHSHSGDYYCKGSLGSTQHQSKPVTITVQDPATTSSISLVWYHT
# T3: mouse FcγRIII (mouse, UniProt P08508 31-215)
# T3 construct: also called mFcγRIII; mFcgRIII
# T3 chain: T2 chain
# B1: H237-MB431/MRAL-k0 (antibody, mouse IgG1, kappa)
# heavy: QVQLQESGPGLVKPSETLSLTCAVSGHSISHDHAWSWVRQPPGEGLEWIGFISYSGITNYNPSLQGRVTISRDNSKNTLYLQMNSLRAEDTAVYYCARSLARTTAMDYWGEGTLVTVSSAKTTPPSVYPLAPGSAAQTNSMVTLGCLVKGYFPEPVTVTWNSGSLSSGVHTFPAVLQSDLYTLSSSVTVPSSTWPSETVTCNVAHPASSTKVDKKIVPRDCGCKPCICPPNEVEDVFIFPPKPKDVLTITLTPKVTCVVVDISKDDPEVQFSWFVDDVEVHTAQTQPREEQFNSTFRSVSELPIMHQDWLNGKEFKCRVNSAAFPAPIEKTISKTKGRPKAPQVYTIPPPKEQMAKDKVSLTCMITDFFPEDITVEWQWNGQPAENYKNTQPIMDTDGSYFVYSKLNVQKSNWEAGNTFTCSVLHEGLHNHHTEKSLSHSPGK
# light: not shown
# notes: copies: 2 + 2
# B2: H237-MB429/MRAL-k0 (antibody, mouse IgG1, kappa)
# heavy: B1 heavy with P229D
# light: not shown
# notes: copies: 2 + 2
# B3: H237-MB435/MRAL-k0 (antibody, mouse IgG1, kappa)
# heavy: B1 heavy with P229I, P230T, N231Y
# light: not shown
# notes: copies: 2 + 2
# B4: H237-MB430/MRAL-k0 (antibody, mouse IgG1, kappa)
# heavy: B1 heavy with P229I
# light: not shown
# notes: copies: 2 + 2
# B5: H237-MB434/MRAL-k0 (antibody, mouse IgG1, kappa)
# heavy: B1 heavy with P229D, P230T, N231Y
# light: not shown
# notes: copies: 2 + 2
# B6: H237-MB414/MRAL-k0 (antibody, mouse IgG1, kappa)
# heavy: B1 heavy with P229D, P230D, N231Y
# light: not shown
# notes: copies: 2 + 2
# B7: H237-MB438/MRAL-k0 (antibody, mouse IgG1, kappa)
# heavy: B1 heavy with P229T, P230T, N231Y
# light: not shown
# notes: copies: 2 + 2
# B8: H237-MB420/MRAL-k0 (antibody, mouse IgG1, kappa)
# heavy: B1 heavy with P229I, P230N, N231Y
# light: not shown
# notes: copies: 2 + 2
# B9: H237-MB416/MRAL-k0 (antibody, mouse IgG1, kappa)
# heavy: B1 heavy with P230D, N231Y
# light: not shown
# notes: copies: 2 + 2
# B10: H237-MB417/MRAL-k0 (antibody, mouse IgG1, kappa)
# heavy: B1 heavy with P229Q, P230D, N231Y
# light: not shown
# notes: copies: 2 + 2
# B11: H237-MB426/MRAL-k0 (antibody)
# heavy: B1 heavy with N231A
# light: not shown
# notes: copies: 2 + 2
# B12: H237-MB422/MRAL-k0 (antibody, mouse IgG1, kappa)
# heavy: B1 heavy with P229Q, P230N, N231Y
# light: not shown
# notes: copies: 2 + 2
# B13: H237-MB423/MRAL-k0 (antibody, mouse IgG1, kappa)
# heavy: B1 heavy with P229T, P230N, N231Y
# light: not shown
# notes: copies: 2 + 2
# B14: H237-MB421/MRAL-k0 (antibody, mouse IgG1, kappa)
# heavy: B1 heavy with P230N, N231Y
# light: not shown
# notes: copies: 2 + 2
# B15: H237-MB419/MRAL-k0 (antibody, mouse IgG1, kappa)
# heavy: B1 heavy with P229D, P230N, N231Y
# light: not shown
# notes: copies: 2 + 2
# B16: H237-MB428/MRAL-k0 (antibody, mouse IgG1, kappa)
# heavy: B1 heavy with P229T, N231A
# light: not shown
# notes: copies: 2 + 2
# B17: H237-MB418/MRAL-k0 (antibody, mouse IgG1, kappa)
# heavy: B1 heavy with P229T, P230D, N231Y
# light: not shown
# notes: copies: 2 + 2
# B18: H237-MB424/MRAL-k0 (antibody, mouse IgG1, kappa)
# heavy: B1 heavy with P229D, N231A
# light: not shown
# notes: copies: 2 + 2
# B19: H237-MB436/MRAL-k0 (antibody, mouse IgG1, kappa)
# heavy: B1 heavy with P230T, N231Y
# light: not shown
# notes: copies: 2 + 2
# B20: H237-MB427/MRAL-k0 (antibody, mouse IgG1, kappa)
# heavy: B1 heavy with P229Q, N231A
# light: not shown
# notes: copies: 2 + 2
# B21: H237-MB437/MRAL-k0 (antibody, mouse IgG1, kappa)
# heavy: B1 heavy with P229Q, P230T, N231Y
# light: not shown
# notes: copies: 2 + 2
# B22: H237-MB415/MRAL-k0 (antibody, mouse IgG1, kappa)
# heavy: B1 heavy with P229I, P230D, N231Y
# light: not shown
# notes: copies: 2 + 2
# B23: H237-MB433/MRAL-k0 (antibody, mouse IgG1, kappa)
# heavy: B1 heavy with P229T
# light: not shown
# notes: copies: 2 + 2
# B24: H237-MB636/MRAL-k0 (antibody, mouse IgG1, kappa)
# heavy: B1 heavy with P229E, P230V, N231Y, D235N
# light: not shown
# notes: mouse IgG1 CH variant; copies: 2 + 2
# B25: H237-MB642/MRAL-k0 (antibody, mouse IgG1, kappa)
# heavy: B1 heavy with P229E, P230D, N231Y, D235Y
# light: not shown
# notes: as for B24
# B26: H237-MB657/MRAL-k0 (antibody, mouse IgG1, kappa)
# heavy: B1 heavy with P229E, D235F
# light: not shown
# notes: as for B24
# Target: T1, mouse FcγRII extracellular domain with …
# Experiment: SPR Biacore T200
relative mFcγRII-binding activity (mIgG1 = 1),Kd,Binder
113,–,B1
137,–,B2
146,–,B3
207,1.02 nM,B4
257,0.818 nM,B5
189,–,B6
283,0.742 nM,B7
124,–,B8
189,–,B9
190,–,B10
112,–,B11
144,–,B12
143,–,B13
178,–,B14
216,0.974 nM,B15
215,0.977 nM,B16
262,0.802 nM,B17
104,–,B18
151,–,B19
217,0.966 nM,B20
198,–,B21
159,–,B22
303,0.694 nM,B23

# Target: T2, mouse FcγRIII extracellular domain with …
# Experiment: SPR Biacore T200
relative mFcγRIII-binding activity (mIgG1 = 1),Kd,Binder
4.2,–,B1
6.8,–,B2
8.7,–,B3
6.3,45 nM,B4
15.5,18.3 nM,B5
8.1,–,B6
15.7,17.9 nM,B7
7.1,–,B8
6.3,–,B9
10.7,–,B10
4.4,–,B11
8.9,–,B12
9.2,–,B13
9,–,B14
11.6,24.3 nM,B15
8.8,32 nM,B16
20,14.1 nM,B17
5.1,–,B18
8.4,–,B19
7,40.3 nM,B20
11.5,–,B21
9.1,–,B22
11.6,24.4 nM,B23

# Target: T1, mouse FcγRII extracellular domain with …
# Experiment: SPR Biacore T200; KD mFcγRIII / KD mFcγRII
relative I/A (mFcγRII selectivity) (mIgG1 = 1),I/A (mFcγRII selectivity),Binder
26.8,–,B1
20.3,–,B2
16.8,–,B3
33,44.3,B4
16.7,22.3,B5
23.6,–,B6
18,24.1,B7
17.5,–,B8
30.2,–,B9
17.8,–,B10
25.2,–,B11
16.3,–,B12
15.5,–,B13
19.9,–,B14
18.6,25,B15
24.4,32.7,B16
13.1,17.6,B17
20.4,–,B18
18,–,B19
31.1,41.7,B20
17.3,–,B21
17.5,–,B22
26.2,35.2,B23

# Target: T3, mouse FcγRIII
# Experiment: SPR (Biacore), antibody captured on Protein L, mFcγR as analyte
# Protocol: Each altered antibody was analyzed for its interaction with each Fcγ receptor prepared above using Biacore T100 (GE Healthcare Japan Corp.), Biacore T200 (GE Healthcare Japan Corp.), Biacore A100, or Biacore 4000. The running buffer used was HBS-EP+ (GE Healthcare Japan Corp.). The assay temperature was set to 25° C. The sensor chips used were chips prepared by immobilizing Protein L (ACTIGEN or BioVision) onto Series S Sensor Chip CM5 (GE Healthcare Japan Corp.) or Series S Sensor Chip CM4 (GE Healthcare Japan Corp.) by the amine coupling method.
# In order to calculate the KD value of each altered antibody for FcγR, kinetic analysis was conducted according to the following method: first, the antibody of interest was captured onto any of these chips and allowed to interact with mFcγR diluted with a running buffer. For the obtained sensorgram, the assay results were globally fit into the 1:1 Langmuir binding model using Biacore Evaluation Software to calculate an association rate constant ka (L/mol/s) and a dissociation rate constant kd (1/s). From these values, the dissociation constant KD (mol/L) was calculated.
row,relative mFcγRIII-binding activity (mIgG1 = 1),Binder
1,0.17 fold,B24
2,0.1 fold,B25
3,0.09 fold,B26
